Laboratory results reported in the supplement of paper PMC12764529.
± gives the half width of the 95% confidence interval.

Key:
[1] = folding stability dG unfold from trypsin proteolysis; higher = more stable
How it was run: (§1)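 Only designs with AlphaFold2 dimer inter-PAE above 15 were retained; each was a mini-protein under 80 residues with no cysteine, in a PA-tagged cDNA display construct. After digestion with trypsin and chymotrypsin and sequencing, K50 was inferred by Bayesian fitting of counts, and unfolding free energy was derived per protease or combined against a sequence-predicted unfolded-state K50 and a shared folded-state K50.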

[2] = folding stability dG unfold from chymotrypsin proteolysis; higher = more stable
How it was run: as §1

[3] = folding stability dG unfold (combined trypsin and chymotrypsin); higher = more stable
How it was run: as §1

Sequence	folding stability dG unfold [1]	folding stability dG unfold [2]	folding stability dG unfold [3]
SAGMKPGEPITLVLPDGVVIPIKINPNGGVEIDDIEPPPDGTYNMDARHPNNGKEITLNIKLPPGFQILSAG [r5_394_TrROS]	1.93 ± 0.13 kcal/mol	0.239 ± 0.77 kcal/mol	0.95 ± 0.43 kcal/mol
SMMIKVKITITNEKGEEVEIEIVASPEEIEEALRKLLPPGAKVEIEKIEFYPLEELKPGDVIKITVRVKPSA [r9_803_TrROS_Hall]	2.85 ± 0.11 kcal/mol	4.47 ± 0.54 kcal/mol	3.72 ± 0.34 kcal/mol
SAGGSAGGSAGGALLVTPTPDGYIARVKDPNSDSWTVVPLSPEELEELAAAGVPTVEVLPSAGGSAGGSAGG [r7_266_JUSTAS]	-0.336 ± 0.32 kcal/mol	1.46 ± 0.064 kcal/mol	1.09 ± 0.16 kcal/mol
SAGTIHFMVPRDEMSDEEAEDIVNTIAKHFPGFKIDRIYWHKQPDPDGDPRRMYHVEIKIKIPLPPGMKSAG [r5_835_TrROS]	1.29 ± 0.022 kcal/mol	2.41 ± 0.06 kcal/mol	2.06 ± 0.059 kcal/mol
SAGGSISIPVYSPEDVIEAIEFIERYLREKGFPENEEATRIIVERLEDGRYRVIIEYPTRTIIIDDSAGGSA [r2_120_TrMRF]	2.9 ± 0.049 kcal/mol	3.09 ± 0.033 kcal/mol	3.01 ± 0.067 kcal/mol
SAGGSMKIEKLPDGKTVVIETVDEETNTITRTRFKLDKDGKLVEMEVETITLPAPPPEEVDEDGKESAGGSA [r2_375_TrROS_Hall]	1.92 ± 0.098 kcal/mol	2.3 ± 0.092 kcal/mol	2.17 ± 0.16 kcal/mol
WLKFPFPIYNPGFGRPAKFEIELWPDGQLQVTWNGQPILSIPIRIVPPPEVEVDPEYDPNGKEKPKWKYPGS [r1_496_TrROS]	0.438 ± 0.22 kcal/mol	1.81 ± 0.16 kcal/mol	1.39 ± 0.35 kcal/mol
SAGGGFEEIIEKAIAKAKELFPDTGAVVPITETVYDPVKKKPIVIEVLVEFDKDGKIKKVEILKISELSAGG [r13_770_TrMRF]	2.86 ± 0.2 kcal/mol	1.34 ± 0.044 kcal/mol	2.09 ± 0.11 kcal/mol
SAGGSAGGSAGGTPIAETEVSEDPATGKLITTSKSPTDPKVYVTTTDLATGVPTTTPLLSAGGSAGGSAGGS [r10_1034_JUSTAS]	0.761 ± 0.031 kcal/mol	0.213 ± 0.047 kcal/mol	0.524 ± 0.064 kcal/mol
SAGGSAGGSAGAPTVKLTFTVTRTETKTETLPDGTTKTETKTETRTVTLTLAPGETITVTSAGGSAGGSAGG [r11_174_TrROS_Hall]	3.39 ± 0.084 kcal/mol	4.27 ± 0.077 kcal/mol	3.98 ± 0.11 kcal/mol
SAGGSAGGSNELLKKLGLKPDQTILVLARPGEIEKLRKEKPIKRIEVTPLPDDLYLYRIEVEGSAGGSAGGS [r12_750_TrMRF]	-0.0878 ± 0.16 kcal/mol	0.095 ± 0.38 kcal/mol	0.192 ± 0.19 kcal/mol
SAGGSAGETVYRVKIRVNGEELEIEVSAEELEALKALPGLEIELVRVEPAPPPEREETVVPEEEEESAGGSA [r15_443_TrROS_Hall]	3.43 ± 0.17 kcal/mol	3.36 ± 0.13 kcal/mol	3.43 ± 0.12 kcal/mol
SAGGVITAEQLRDLVKTLPPDYTIRVKVYYSTSTEEYTITPDNPIKFPPNAPTETITRIEVVEISPDSAGGS [r16_97_TrMRF]	3.87 ± 0.088 kcal/mol	4.43 ± 0.045 kcal/mol	4.33 ± 0.068 kcal/mol
SAGGSAGGSAGRRIVFQFPLGMPIDEIADELADNGYEVEINWEPDPNGWMTFVIEITPPDSAGGSAGGSAGG [r11_1050_TrROS]	1.45 ± 0.016 kcal/mol	2.31 ± 0.097 kcal/mol	1.97 ± 0.11 kcal/mol
SAGGSAGGSKPVLKITVTNEKGEKQTISLDELQAETGLSAEEIAARLAALLPPGAKITIEPVPSAGGSAGGS [r12_399_TrROS_Hall]	1.81 ± 0.024 kcal/mol	2.11 ± 0.023 kcal/mol	1.98 ± 0.048 kcal/mol
SAGGSAGGMKTVEIEVTVKTPDGKEVKIKKARIEYDKETKTFHLYFENEETGEWYEVDEIKLKDSAGGSAGG [r6_329_TrROS_Hall]	1.96 ± 0.085 kcal/mol	2.69 ± 0.18 kcal/mol	2.71 ± 0.2 kcal/mol
SAGGSAGGSAIMINIDLEYDPGDGTIELEYKISFMDPGGKPMGMITIRLEIRIPPPEPDPDDKSAGGSAGGS [r12_254_TrROS]	3.08 ± 0.31 kcal/mol	3.64 ± 0.39 kcal/mol	3.37 ± 0.46 kcal/mol
SAGGSLVYRLVLRRGDKVLVVTAPFDSPSDALAAASRLLPGGAELLLEFFDPRTGEPLGTVPFRSVSAGGSA [r2_390_TrMRF]	2.257 ± 0.015 kcal/mol	2.06 ± 0.039 kcal/mol	2.22 ± 0.034 kcal/mol
SAGAVRPDEPVTVTVTVEVDPETGFVRVTFDAAAPDGITVEALIPPDGPVLVRVRRPGSRETVEVVLPASAG [r5_55_TrMRF]	2.57 ± 0.13 kcal/mol	3.31 ± 0.045 kcal/mol	3.06 ± 0.072 kcal/mol
SAGGMKTSAEELVERLKKELEAKGLKPKEVKKLPDGSLLVEFEEDVVVYIDAKTGTVTVLTPEEYEKLSAGG [r13_717_JUSTAS]	1.7 ± 0.12 kcal/mol	2.68 ± 0.05 kcal/mol	2.4 ± 0.14 kcal/mol
SAGGMNMKPIKKETFTLPDENGNEVKIEIYKLEDGSYIIKITYPSGKTETFIVPDEETAKNLKIEIKPSAGG [r13_109_TrMRF]	1.66 ± 0.12 kcal/mol	2.91 ± 0.046 kcal/mol	2.62 ± 0.18 kcal/mol

Sequence	folding stability dG unfold [1]	folding stability dG unfold [2]	folding stability dG unfold [3]
SAPVVVVETIPDGGVLIVPAVFEPDKLLEYVEEIVNKIKPKGAEVEAKVIKVEPFEDFVVVTFEVKVKPSAG [r14_345_TrMRF]	1.69 ± 0.12 kcal/mol	1.7 ± 0.032 kcal/mol	1.68 ± 0.16 kcal/mol
SAGGSANWYIKITIEYPNGREWEIPFPFKSVEDVKDQIKNAAREYFPNLPPEDVKIDDIELYPLDDSAGGSA [r15_220_TrROS]	1.3 ± 0.056 kcal/mol	2.01 ± 0.04 kcal/mol	1.83 ± 0.097 kcal/mol
SAGGSAGGSAGGYLEAPIVIKIEFQIYDPDDGDPIATYEHTIMIPIEIELPPPPDPDNDSAGGSAGGSAGGS [r10_50_TrROS]	1.97 ± 0.21 kcal/mol	2.28 ± 0.17 kcal/mol	2.18 ± 0.23 kcal/mol
SAPDVGPEERARRLIEEARAEVEAARAAGDPSVPRRVVFDELAVAHPEEAARILEEAARLGIPVEVRPPSAG [r14_908_JUSTAS]	0.252 ± 0.11 kcal/mol	0.98 ± 0.044 kcal/mol	0.748 ± 0.083 kcal/mol
SPIKLPIVFPNLPKEEAKEAVEALAKELEEKYGFKIEVEVEELRAPDGKLVAVVAIATIEKFGEEDKLLFSA [r9_21_TrMRF]	1.3 ± 0.08 kcal/mol	1.12 ± 0.14 kcal/mol	1.2 ± 0.18 kcal/mol
SAGGSAGGSAGGSMSSTVTTTLVEVGPPNGKRVLVRRTTTTFPDGSVTTTVTVLSTTIASAGGSAGGSAGGS [r4_496_JUSTAS]	1.84 ± 0.027 kcal/mol	2.61 ± 0.033 kcal/mol	2.37 ± 0.063 kcal/mol
SAGAMPPVVEVAPVEGEGLLRVTVPVPTSDVVRVTVDLGDRRLEYTLPRDASLEVSTADAEVRVAVELVSAG [r14_96_JUSTAS]	0.5 ± 0.031 kcal/mol	0.639 ± 0.1 kcal/mol	0.638 ± 0.056 kcal/mol
SAGGSSYSVAQSPGPARLYSVPQPDGRVVEVDVEELPGGLLRVRVPDDPVPRLFPASLSLADIVSLSAGGSA [r2_338_JUSTAS]	0.644 ± 0.02 kcal/mol	0.933 ± 0.046 kcal/mol	0.866 ± 0.032 kcal/mol
SKKVKPIATIDVEGMSLEELLAAIKAALPPGEKAIVRIVNADGEVRTIEIDAKTGEIKSLPPGARIYIYPSA [r9_853_TrROS_Hall]	2.1 ± 0.027 kcal/mol	1.95 ± 0.035 kcal/mol	2.02 ± 0.048 kcal/mol
SAGGSAGVLEAVVFNPETGTFSVIPAAVLEKAFAANPADTELTFTLKDKPVKVFVFPGPGLAVVTGSAGGSA [r15_350_TrMRF]	1.14 ± 0.018 kcal/mol	1.56 ± 0.061 kcal/mol	1.45 ± 0.053 kcal/mol
SAGGSAGGSVESATTTITITASLTPEEVEEIIEELKKKGLNVKKVEIEREPETGSVTITVTVNPSAGGSAGG [r6_514_JUSTAS]	3.2 ± 0.1 kcal/mol	2.92 ± 0.075 kcal/mol	3.14 ± 0.093 kcal/mol
SAMELRVESELFPDGRRRLVVLDPGDGAPVVTFIDLEPVDGGYRASITQIGPDPAVAERVARELGIPPESAG [r14_545_TrMRF]	-0.191 ± 0.21 kcal/mol	1.17 ± 0.047 kcal/mol	0.786 ± 0.082 kcal/mol
SAEEELRKALENMSDEELEALLRAAAPPPKTVTIRLSEEELEKLAQELADEYNVTVTVEVDGKTLTLTLSAG [r14_7_TrROS_Hall]	1.69 ± 0.024 kcal/mol	1.74 ± 0.051 kcal/mol	1.76 ± 0.049 kcal/mol
SAGGSAGGSAGVVEPTVVSRAPDGTLTVVLNLPDGSTRTVTDPTNVTIGDRPINALTNASSAGGSAGGSAGG [r11_1017_JUSTAS]	-0.956 ± 0.45 kcal/mol	0.508 ± 0.042 kcal/mol	0.222 ± 0.14 kcal/mol
SAGGSAMPDLAAAPGVTRVEPYPDGLVEIHLDGSEEARDEIEERLRAAGDFEIYRLPDRDTLLVRASAGGSA [r15_554_TrMRF]	-0.00819 ± 0.26 kcal/mol	-0.165 ± 0.55 kcal/mol	-0.025 ± 0.29 kcal/mol
SAAPVRVEVEYDPERGVLRVRLYIPATSPEEARELVERFFAALGAEARITENPETGTFVVEVDIRLPPASAG [r14_424_TrMRF]	4.09 ± 0.09 kcal/mol	5.15 ± 0.056 kcal/mol	4.92 ± 0.074 kcal/mol
SAGGEKRYLVRVRAYYRFEEGERELDLEVEVTSPEEAKELLEKIATRLRKLYPDRIRIEVEIRPLEESAGGS [r16_475_TrMRF]	4.53 ± 0.17 kcal/mol	5.1 ± 0.12 kcal/mol	4.94 ± 0.14 kcal/mol
SAGSSSSLPNVLVVTLYLPDAPLPIVLPVDTPEDVELAKERVKEIEKELEELGLPVNVEFKYYPPGFPVSAG [r5_823_TrMRF]	0.497 ± 0.065 kcal/mol	-1.16 ± 0.84 kcal/mol	0.194 ± 0.18 kcal/mol
SAGGRAVLLATFTTPDGSLVLVYEDPATGRVLVVSFDPSTGRVSVLRLRRVPNTGDLFIEDRATFPLSSAGG [r19_249_TrMRF]	3.51 ± 0.059 kcal/mol	4.36 ± 0.12 kcal/mol	3.97 ± 0.12 kcal/mol
SAGGSAGGDEKAKEELKKKKPPKIELTVKVEVEVSEDGTVKVKAKVFGPDGKLIAEAEFTFKVKSAGGSAGG [r6_419_TrROS_Hall]	1.67 ± 0.19 kcal/mol	2.5 ± 0.12 kcal/mol	2.58 ± 0.38 kcal/mol
SAGGSAGGSAGGSLELTFLLEDGTLAKVRIELNEDGELSISVELFELPAPEPVEVRFYPESAGGSAGGSAGG [r7_79_TrROS_Hall]	1.42 ± 0.051 kcal/mol	2.8 ± 0.084 kcal/mol	2.42 ± 0.18 kcal/mol
